Assay results taken from US20250206841A1 (ADEPT THERAPEUTICS, published 2025).
Where a chain is given by its changes, count along the chain named.

T1: human Trop-2-His protein (human, UniProt P09758 27-274)
T1 construct: extracellular domain; Assay paragraphs say only 'Trop-2-His'; also called hTrop-2; Kactus Cat #TRP-HM121; not shown: His tag
T1 sequence (looked up): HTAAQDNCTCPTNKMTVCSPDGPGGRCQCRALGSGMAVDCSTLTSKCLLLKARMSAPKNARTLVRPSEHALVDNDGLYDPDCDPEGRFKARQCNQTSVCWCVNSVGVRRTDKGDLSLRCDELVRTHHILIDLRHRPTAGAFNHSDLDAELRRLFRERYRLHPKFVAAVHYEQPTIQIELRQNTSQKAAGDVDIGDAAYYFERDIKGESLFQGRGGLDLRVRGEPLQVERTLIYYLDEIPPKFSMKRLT

T2: cynomolgus Trop-2-His protein (cynomolgus, UniProt P09758 27-274 (human entry))
T2 construct: also called cynmolgus Trop-His; Kactus Cat #TRP-CM121; not shown: His tag
T2 chain: T1 sequence (looked up) with M36V, S67N, G139S, I204V

T3: human Trop-2 expressed on cell surface (human, UniProt P09758 27-323)
T3 construct: whole, on cells; also called cell surface Trop-2
T3 sequence (looked up): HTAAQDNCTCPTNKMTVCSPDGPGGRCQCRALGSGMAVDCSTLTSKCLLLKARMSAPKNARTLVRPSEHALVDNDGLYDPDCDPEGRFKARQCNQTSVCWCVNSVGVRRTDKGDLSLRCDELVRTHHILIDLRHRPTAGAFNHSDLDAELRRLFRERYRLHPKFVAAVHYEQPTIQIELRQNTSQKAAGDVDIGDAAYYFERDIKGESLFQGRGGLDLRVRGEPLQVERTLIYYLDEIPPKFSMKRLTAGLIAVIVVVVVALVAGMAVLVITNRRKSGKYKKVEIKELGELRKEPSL

B1: 5D4-1 (antibody, V domains shown)
VH: QQLEESGGGLVKPEGSLTLTCKGSGFDFSGTYWMWWVRQAPGKGLEWIAPIYVGSGSSTYYASWAKGRFTISSTSSTAVTLQATSLTAADTATYFCARGATNNVFMNYFNLWGPGTLVTVSS
VL: FEMTQTPSSVSEPVGGTVTIKCQASEDISSNLGWYQQKPGQPPKLLIYGASTLASGVPSRFKGSGSGTEFTLTISDLEPADAATYYCQTSYYIDDGVNGFGGGTEVVVK
B2: 5D4-2 (antibody, V domains shown)
VH: B1 VH with P50S
VL: B1 VL with P79A
B3: 1D10 (antibody, V domains shown)
VH: QEQLKESGGGLVQPGGSLTLSCKASGFDFNYYGVSWVRQAPGKGLEWIGYIYPAYHNTYYATWVNGRFTISSHNAQNTLYLQLNTLTAADTATYFCARDAGSTDYNLNLWGPGTLVTVSS
VL: DVVMTQTPASVEVAVGGTVTIKCQASEDIESYLAWYQQKPGQPPRLLIYEASKLASGVSSRFSGGGYGTDFTLTISGVECADAATYYCHQALTIGNVDNPFGGGGEVVVK
notes: Rabbit-derived clone; LEM construct: VH + rabbit IgG CH1 + human IgG1 CH2-CH3
B4: 9D7-2 (antibody, V domains shown)
VH: QSLEESGGDLVQPGASLTLTCKASGFDLNNYSILWVRQAPGKGLEWIGSIYISGGSTYYANWAKGRFAISKTSSTTVTLQMTSLTAADTATYFCARDDGTASYYLNLWGPGTLVTVSS
VL: YDMTQTPASVSEPVGGTVTIKCQASEDIYKLLAWYQQKPGQPPKLLIYAASDLESGVPSRFKGRGSGTDYTLTISDLEAADAATYYCQQAYTIGNIDNSFGGGTEVVVK
B5: 10A9-2 (antibody, V domains shown)
VH: B4 VH with S32A, I33M, S56T, Y59F, N61S, K64T, A101T
VL: B4 VL with E12A, P13A, K30S, A49G, D52N, R64S, D69E, A80D, S99A

target: T1, human Trop-2-His protein; assay: ELISA, coated Trop-2 protein
Experimental: (§1) Purified antibodies were tested by ELISA to confirm their binding and affinity against human and cynomolgus Trop-2-His protein. Briefly, 96-well Maxisorp plates (Nunc) were coated with 100 μl/well of 0.5 μg/ml human (Kactus Cat #TRP-HM121, or Sino Biological, Cat #10428-HO8H) or cynomolgus Trop-2 protein (Kactus Cat #TRP-CM121, or Sino Biological, Cat #90893-CO8H) diluted in 1×PBS (GIBCO) overnight at 4° C. Plates were washed four times with 300 μl/well washing buffer (1×PBST, diluted from 20×PBST (Thermo Scientific) with distilled water)) and then blocked with 300 μl/well of blocking buffer (1×PBST/3% BSA (BSA, Sigma)) for 2 hours at RT on plate shaker at 100 rpm. Plates were washed and added with 100 μl/well of testing antibodies, which were serial diluted with assay buffer (PBST/1% BSA). The antibodies were incubated at room temperature for 2 hours on plate shaker at 100 rpm. Plates were washed. One hundred microliters (100 μl) of 1:10,000 diluted horseradish peroxidase (HRP) conjugated anti-hIgG antibody (Jackson Immuno Research) was added into each well and incubated at room temperature for 1 hour on plate shaker at 100 rpm. Plates were washed and added with 100 μl/well TMB substrate for color development in dark at room temperature for up to 10 minutes. After addition of 50 μl/well of stop solution (1N H₂SO₄), plates were read at 450 nm on a plate reader (SpectraMax M5). EC₅₀ values were calculated using Graphpad Prism. Sacituzumab govitecan, was used as positive control. Anti-HEL.hIgG1 was used as isotype control.

Row | Binder | EC50
1 | B1 | 0.018 nM
2 | B2 | 0.015 nM
3 | B3 | 0.016 nM
4 | B4 | 0.02 nM
5 | B5 | 0.014 nM

Target: T2, cynomolgus Trop-2-His protein
Assay: ELISA, coated Trop-2 protein
Experimental: as §1

Row | Binder | EC50
6 | B1 | 0.023 nM
7 | B2 | 0.018 nM
8 | B3 | 0.017 nM
9 | B4 | 0.014 nM
10 | B5 | 0.016 nM

target: T3, human Trop-2 expressed on cell surface; assay: flow cytometry, MDA-MB-231-GFP cells
Experimental: (§2) Cells were then resuspended in FACS buffer (1×DPBS/1% FBS) at 10⁶/ml concentration. One hundred microliter (100 μl) of cells were aliquoted into a single well in 96 well plates. The antibodies to be tested were serially diluted at 1:3 fold starting at 15 μg/mL and were then added into each well. The antibodies were mixed with cells and the mixtures were incubated on ice for 1 hour. After washing with FACS buffer, one hundred microliter (100 μl) of 1:400 diluted PE-conjugated anti-human Fc secondary antibody (Jackson Immuno Research) was added into each well and incubated for 30 minutes on ice. After washing with FACS buffer, stained cells were resuspended at diluted 7-ADD (Biolegend, used at 1:100 dilution) and analyzed on Guava 11HT or 5HT (Luminex). Data was analyzed using Flowjo software. EC₅₀ values were calculated using GraphPad Prism. Sacitnzurnab govitecan was used as positive control. Anti-HEL.hIgG1 was used as isotype negative control. Similar assay was performed using MCF-7 cells (known to express human Trop-2).

Row | Binder | EC50
11 | B1 | 0.01 nM
12 | B2 | 0.04 nM
13 | B3 | 0.01 nM
14 | B4 | 0.1 nM
15 | B5 | 0.04 nM

target: T3, human Trop-2 expressed on cell surface; assay: cell-based or functional assay

Row | Binder | Internalization %, MDA-MB-231, 0.25 µg/ml, 2 h | Internalization %, MDA-MB-231, 0.25 µg/ml, 4 h | Internalization %, MDA-MB-231, 0.5 µg/ml, 2 h | Internalization %, MDA-MB-231, 0.5 µg/ml, 4 h | Internalization %, MDA-MB-231, 1 µg/ml, 2 h | Internalization %, MDA-MB-231, 1 µg/ml, 4 h | Internalization %, MDA-MB-231, 2 µg/ml, 2 h | Internalization %, MDA-MB-231, 2 µg/ml, 4 h
16 | B1 | 58% | 66% | 56% | 61% | 59% | 64% | 57% | 63%
17 | B2 | 55% | 61% | 48% | 57% | 52% | 58% | 57% | 62%
18 | B3 | 46% | 53% | 48% | 52% | 41% | 51% | 39% | 44%
19 | B4 | 52% | 63% | 49% | 58% | 51% | 62% | 48% | 59%
20 | B5 | 46% | 55% | 44% | 55% | 43% | 57% | 45% | 58%

target: T1, human Trop-2-His protein; assay: BLI (Gator Prime), LEM supernatant Ab on HFC probe
Experimental: (§3) After three times of regeneration and neutralization of HFC probe (Gator, Cat #160003), LEM transfection supernatant samples to be tested in K buffer was diluted 1:1 in K buffer and immobilized onto HFC probe. […] The association and dissociation of human or cynomolgus Trop-2-His antigen from antibody was measured on BLI machine Gator Prime. Affinity was calculated using Gator Bio analysis software. Blank control was used for reference subtraction. 1 μg/ml of Sacituzumab govitecan was used as positive control.
(§4) Table 23 below summarizes the binding affinity of exemplary anti-Trop-2 antibodies in LEM transfection supernatant samples to human and cynomolgus Trop-2 using Gator.

Row | Binder | Kd | koff | kon
21 | B3 | 0.53 nM | 0.00027 s⁻¹ | 518000 M⁻¹ s⁻¹

Target: T2, cynomolgus Trop-2-His protein
Assay: BLI (Gator Prime), LEM supernatant Ab on HFC probe
Experimental: as §3, §4

Row | Binder | Kd | koff | kon
22 | B3 | 0.361 nM | 0.00027 s⁻¹ | 688000 M⁻¹ s⁻¹

target: T3, human Trop-2 expressed on cell surface; assay: flow cytometry, MCF-7 cells
Experimental: as §2

Row | Binder | EC50
23 | B1 | 1 nM
24 | B2 | 0.8 nM
25 | B3 | 0.9 nM
26 | B4 | 1 nM
27 | B5 | 1.8 nM

target: T3, human Trop-2 expressed on cell surface; assay: cell-based or functional assay; remark: another data set of the same source

Row | Binder | EC50 of ADCC (NFAT-CD16 reporter), MCF-7 | EC50 of ADCC (NFAT-CD16 reporter), MDA-MB-231
28 | B1 | 0.61 nM | 0.11 nM
29 | B2 | 0.52 nM | 0.08 nM
30 | B3 | 0.28 nM | 0.04 nM
31 | B4 | 0.23 nM | 0.11 nM
32 | B5 | 0.28 nM | 0.07 nM
